Measured values taken from patent publication US20240336665A1 (ACROIMMUNE GUANGZHOU BIOTECH, published 2024).

T1: Siglec10-mIgG2aFc fusion protein (AcroBiosystems, SI0-H525b, HEK293 cell derived) (human, UniProt Q96LC7 17-546)
T1 construct: Bought reagent; also called recombinant human Siglec-10-mIgGFc protein; not shown: mouse IgG2a Fc
T1 sequence (looked up): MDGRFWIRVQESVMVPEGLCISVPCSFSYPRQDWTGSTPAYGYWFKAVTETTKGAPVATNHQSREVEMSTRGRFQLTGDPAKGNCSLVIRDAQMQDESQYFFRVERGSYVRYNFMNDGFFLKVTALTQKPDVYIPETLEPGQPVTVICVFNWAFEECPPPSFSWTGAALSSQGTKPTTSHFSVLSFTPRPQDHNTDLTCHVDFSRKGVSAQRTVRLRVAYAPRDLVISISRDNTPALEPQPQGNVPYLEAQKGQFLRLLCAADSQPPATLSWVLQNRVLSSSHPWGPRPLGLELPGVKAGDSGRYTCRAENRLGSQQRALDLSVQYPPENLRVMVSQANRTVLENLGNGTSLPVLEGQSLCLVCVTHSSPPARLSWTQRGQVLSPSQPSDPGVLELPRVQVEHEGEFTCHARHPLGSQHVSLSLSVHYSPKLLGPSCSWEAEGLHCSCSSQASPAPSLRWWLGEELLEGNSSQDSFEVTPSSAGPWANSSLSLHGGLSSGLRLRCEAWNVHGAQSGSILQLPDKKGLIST

B1: HMGB1-His tag protein (AcroBiosystems, HM1-H5220, HEK293 cell derived) (other, human, UniProt P09429 1-215, looked up)
chain: MGKGDPKKPRGKMSSYAFFVQTCREEHKKKHPDASVNFSEFSKKCSERWKTMSAKEKGKFEDMAKADKARYEREMKTYIPPKGETKKKFKDPNAPKRPPSAFFLFCSEYRPKIKGEHPGLSIGDVAKKLGEMWNNTAADDKQPYEKKAAKLKEKYEKDIAAYRAKGKPDAAKKGVVKAEKSKKKKEEEEDEEDEEDEEEEEDEEDEDEEEDDDDE
notes: Bought reagent; also called recombinant human HMGB1-His tag protein; High Mobility Group Box 1; not shown: His tag

Assays:
[1] = target: T2, human IgG1-Fc control protein (human, UniProt P01857-1 100-330 = IgG part, limits assumed); experiment: protein A bead pull-down, SDS-PAGE with Coomassie staining
T2 construct: domain: Fc; Control in the pull-down assay; also called human IgG-Fc control
Protocol: FIGS. 8A-8B illustrate the association of AI-072 protein with human HMGB1 in a pull-down assay. Recombinant HMGB1-His protein sample was incubated with AI-072, human IgG-Fc control, or none for 5 min, then add protein A-conjugated beads to the mixture to capture (or pull-down) the bound proteins. The captured proteins were then separated in an SDS-PAGE gel and visualized by Coomassie Brilliant Blue dye staining. […] As indicated on the top of each gel, lane 1 represents the sample containing HMGB1 only, lane 2 represents the sample containing HMGB1 and human IgG-Fc, and lane 3 represents the sample containing HMGB1 and AI-072, lane M is the protein molecule weight marker sample.
In-brief, 8 μL of 500 μg/mL HMGB1-His protein was mixed with either about 3 μg AI-072 or human IgG1-Fc control protein or none, and set at room temp for 5 min. The mixtures were then incubated with protein A-conjugated beads to capture (or pull-down) the bound proteins. The captured proteins were separated in an SDS-PAGE gel and visualized by Coomassie Brilliant Blue dye staining.

[2] = target: T1, Siglec10-mIgG2aFc fusion protein …; experiment: ELISA, Siglec10-mIgG2aFc coated, detection by anti-human IgG-Fc-HRP
Protocol: In-brief, 96-well plates were coated (100 μL per well) with 0.2 μg/mL of Siglec10-mIgG2aFc fusion protein (AcroBiosystems, SI0-H525b, HEK293 cell derived) at 4° C. overnight. After blocking with SuperBlock (Thermo, 37515) at room temperature for 1 hour, 100 μL of 2-fold serial dilutions of either AI-072 or CD24Fc (all starting at 1.5 mg/ml) were added. The bound AI-072 or CD24Fc protein was then detected by HRP-labeled goat anti-human IgG-Fc antibody (1:5000, Invitrogen, A18829) followed by the addition of Tetramethylbenzidin (TMB) substrate. After a color development at room temp for 15 min, 2N HCl stop solution was added into the plate. The OD values at a wavelength of 450 nm (OD 450 nm) in each well were then measured.

[3] = target: B1; experiment: ELISA, HMGB1-His coated, detection by anti-human IgG-Fc-HRP
Protocol: In-brief, 96-well plates were coated (100 μL per well) with 0.1 μg/mL HMGB1-His tag protein (AcroBiosystems, HM1-H5220, HEK293 cell derived) at 4° C. overnight. After blocking with SuperBlock (Thermo, 37515) at room temperature for 1 hour, 100 μL of 2-fold serial dilutions of AI-72 or CD24Fc (all starting at 1.5 mg/ml, and diluted in PBST-1% BSA solution containing 1 mM MgCl2 and 1 mM CaCl2) were added. The bound AI-072 or CD24Fc protein was then detected by adding HRP-labeled goat anti-human IgG-Fc antibody (1:1000, Invitrogen, A18829), followed by the addition of tetramethylbenzidin (TMB) substrate. After a color development at room temp for 15 mins, 2N HCl stop solution was then added into the plate. The OD values at a wavelength of 450 nm in each well were then measured.

| binding result [1] | EC50 [2] | EC50 [3] | Binder |
| --- | --- | --- | --- |
| no binding (tested: about 3 ug) | – | – | B1 |
| – | 2.85 µM | 51 µM | SETTTGTSSNSSQSTSNSGLAPNPTNATTK (Fc fusion, UniProt P25063 27-56, looked up, Comparator protein; also called CD24Fc protein; not shown: Fc detected by anti-human IgG-Fc antibody) [CD24Fc fusion protein] |
